Test results reported in PMC9823007.

Biological target: NyxB (His tag cleaved, for crystallisation, SEC-MALS and SAXS) (Brucella abortus 2308) (UniProt Q2YPZ9)
Test: SEC-MALS

For “NyxB (His tag cleaved, for crystallisation, SEC-MALS and SAXS) (from UniProt Q2YPZ9 1-134) (natural protein)”, which stoichiometry N is on record?
The stoichiometry N was 2.
